The Kd is the free concentration of one partner at which half of the binding sites on the other are occupied at equilibrium, for simple one-to-one binding. What is called stoichiometry N is the number of molecules, sites or subunits per partner or assembly. The kon is the second-order rate constant of association. Read a high kon as faster complex formation.

Here are results for two molecules from publication PMC12285911 (Nature Structural & Molecular Biology, 2025).

Common to all, as to details: both partners purified
Experiment [1] concerns the target T1, ^FAMFAT10 (GG–FAT10 N-terminally labeled with fluorescein amidite by sortase) (human, 5-FAM on the N terminus (5-FAM conjugated to the N terminus of the peptide …, attached by sortase)).
T1 construct: GG added to the N terminus of FAT10 for sortase labeling (scar left after Smt3 cleavage); also called GG–FAT10 (labeled); source: E. coli BL21*, purified; sortase-labeled, enriched on Ni-NTA, gel filtration; not shown: His, N-terminal, cleaved; Smt3, N-terminal, cleaved
T1 chain: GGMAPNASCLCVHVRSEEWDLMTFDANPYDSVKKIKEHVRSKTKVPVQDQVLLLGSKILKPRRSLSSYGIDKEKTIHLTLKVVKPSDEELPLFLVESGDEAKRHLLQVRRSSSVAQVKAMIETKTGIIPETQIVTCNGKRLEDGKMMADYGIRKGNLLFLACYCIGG
Description: fluorescence polarisation; titration: ^FAMFAT10 (100 nM) incubated with varying NUB1 concentrations on ice (45 min by the legends, 30 min by the methods), polarisation read in a 384-well plate preheated to 30 °C; the Kd is called approximate (some aggregation at higher NUB1 concentrations). For orientation: In fluorescence polarisation assays a small probe gives low polarisation when free and higher when bound to something large.

The target in experiment [2] is T2, FAT10 (human leukocyte antigen-F-adjacent transcript 10), wild type, full length, unlabeled (human).
T2 construct: also called wild-type FAT10; source: E. coli BL21*, purified (Ni-NTA, His–ULP1 cleavage, HiTrap SP, gel filtration); not shown: His, N-terminal, cleaved; Smt3, N-terminal, cleaved
T2 chain: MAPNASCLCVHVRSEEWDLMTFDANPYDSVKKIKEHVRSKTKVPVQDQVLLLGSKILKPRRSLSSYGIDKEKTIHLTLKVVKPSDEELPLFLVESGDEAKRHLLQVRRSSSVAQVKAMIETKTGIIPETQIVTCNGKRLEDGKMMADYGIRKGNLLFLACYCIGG
Nature of the experiment: SEC; NUB1 (50 µM) incubated with FAT10 (75 µM) for 30 min on ice, Superdex 200 Increase 10/300; the single complex peak was pooled and run on SEC–MALS (60 mM HEPES pH 7.4, 50 mM NaCl, 50 mM KCl, 5% glycerol, 10 mM MgCl2, 0.5 mM TCEP). (In general: In gel filtration, larger molecules generally elute earlier.)

The target of experiment [3] is T3, Rpn1 (proteasomal receptor subunit of the 19S regulatory particle) (human (endogenous in HEK293), UniProt Q13200 1-908).
T3 construct: Rpn1, subunit of the human 26S proteasome; stood in the experiment as a subunit of the whole hs26S proteasome; also called proteasomal Rpn1 subunit; source: endogenous, within the hs26S proteasome purified from HEK293 cells
T3 sequence (Q13200 whole entry): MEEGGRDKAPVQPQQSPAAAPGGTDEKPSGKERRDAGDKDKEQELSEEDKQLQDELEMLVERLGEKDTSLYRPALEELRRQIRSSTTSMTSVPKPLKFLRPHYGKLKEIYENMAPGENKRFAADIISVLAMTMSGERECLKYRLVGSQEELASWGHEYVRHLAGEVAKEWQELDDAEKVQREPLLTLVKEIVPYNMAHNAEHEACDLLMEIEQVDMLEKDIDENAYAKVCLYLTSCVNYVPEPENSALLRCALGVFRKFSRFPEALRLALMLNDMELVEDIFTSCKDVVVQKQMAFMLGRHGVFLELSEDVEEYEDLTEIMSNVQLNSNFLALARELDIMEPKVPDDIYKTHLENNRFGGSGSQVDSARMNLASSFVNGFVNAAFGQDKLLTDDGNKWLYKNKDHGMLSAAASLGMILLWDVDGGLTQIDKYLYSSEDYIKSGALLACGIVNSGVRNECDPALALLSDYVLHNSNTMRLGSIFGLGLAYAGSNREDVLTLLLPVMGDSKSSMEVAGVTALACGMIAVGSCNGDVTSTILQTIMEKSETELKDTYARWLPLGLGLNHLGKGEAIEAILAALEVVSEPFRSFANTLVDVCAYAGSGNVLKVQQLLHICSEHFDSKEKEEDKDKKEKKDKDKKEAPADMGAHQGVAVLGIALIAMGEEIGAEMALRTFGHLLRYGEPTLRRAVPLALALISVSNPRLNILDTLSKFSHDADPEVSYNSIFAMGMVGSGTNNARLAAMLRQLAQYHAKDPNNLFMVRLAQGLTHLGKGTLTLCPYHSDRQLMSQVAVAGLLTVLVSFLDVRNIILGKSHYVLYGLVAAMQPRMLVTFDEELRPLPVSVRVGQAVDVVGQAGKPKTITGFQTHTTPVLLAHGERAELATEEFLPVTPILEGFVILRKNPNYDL
Description: cryo-EM structure; hs26S proteasome mixed with preincubated (20 min) FAT10–Eos + NUB1 complex in 20 mM HEPES pH 7.4, 25 mM NaCl, 25 mM KCl, 5 mM MgCl2, 2 mM ATP, for 30 s or 60 s before plunge-freezing; nonprocessing and processing states.

Experiment [4] concerns the target T1, ^FAMFAT10 (GG–FAT10 N-terminally …). Description: fluorescence polarisation; kinetics: ^FAMFAT10 (20 nM) mixed with NUB1 (250–4,000 nM), polarisation over time, single exponentials, kobs against NUB1 concentration, kon by linear regression; 30 °C.

B1: NUB1^Δ1–175 (domain or fragment)
chain: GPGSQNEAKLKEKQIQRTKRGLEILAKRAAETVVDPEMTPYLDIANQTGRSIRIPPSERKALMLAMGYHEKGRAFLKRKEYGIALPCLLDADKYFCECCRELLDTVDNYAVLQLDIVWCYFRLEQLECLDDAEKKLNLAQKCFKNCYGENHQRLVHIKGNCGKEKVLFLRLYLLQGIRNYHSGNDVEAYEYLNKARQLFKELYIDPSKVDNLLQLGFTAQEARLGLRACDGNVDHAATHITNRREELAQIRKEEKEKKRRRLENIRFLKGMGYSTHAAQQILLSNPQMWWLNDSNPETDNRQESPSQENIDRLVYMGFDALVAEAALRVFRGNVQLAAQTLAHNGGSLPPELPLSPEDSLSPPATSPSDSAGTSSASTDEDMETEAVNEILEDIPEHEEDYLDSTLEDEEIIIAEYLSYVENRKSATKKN
notes: overhang left at the N terminus after removal of GST by precision (3C) protease; also called linker-trap domain; source: E. coli BL21*, purified (GSH resin, GST–3C protease cleavage, gel filtration); not shown: GST, N-terminal, cleaved
In the case of B1, in experiment [1], the binding result was “binds”.

B2: NUB1 (NEDD8 ultimate buster 1), wild type, full length (natural protein)
chain: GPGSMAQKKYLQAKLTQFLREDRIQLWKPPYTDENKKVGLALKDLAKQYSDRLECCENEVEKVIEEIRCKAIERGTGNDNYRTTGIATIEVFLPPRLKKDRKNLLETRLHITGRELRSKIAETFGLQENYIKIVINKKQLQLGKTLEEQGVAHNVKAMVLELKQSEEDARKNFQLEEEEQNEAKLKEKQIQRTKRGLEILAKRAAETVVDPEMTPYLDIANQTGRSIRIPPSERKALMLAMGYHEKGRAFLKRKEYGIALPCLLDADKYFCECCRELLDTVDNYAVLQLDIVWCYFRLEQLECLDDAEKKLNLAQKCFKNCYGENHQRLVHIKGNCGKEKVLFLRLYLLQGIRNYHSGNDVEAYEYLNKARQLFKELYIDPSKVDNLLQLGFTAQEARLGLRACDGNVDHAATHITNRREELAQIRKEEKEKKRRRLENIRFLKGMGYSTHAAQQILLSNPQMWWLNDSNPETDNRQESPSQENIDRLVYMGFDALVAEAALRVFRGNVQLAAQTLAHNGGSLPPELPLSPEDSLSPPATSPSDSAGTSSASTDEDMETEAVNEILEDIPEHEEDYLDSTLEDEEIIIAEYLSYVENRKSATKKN
notes: overhang left at the N terminus after removal of GST by precision (3C) protease; the shorter isoform, not NUB1L; codon-optimised synthetic gene in pGEX-6P-1; also called wild-type NUB1; source: E. coli BL21*, purified (GSH resin, GST–3C protease cleavage, gel filtration); not shown: GST, N-terminal, cleaved
B2: the Kd in experiment [1] was 176 ± 6.8 nM. The “stoichiometry N” value in experiment [2] was 1. Besides, the binding result in experiment [3] was “binds”. The molecule further yielded an on-rate (kon) in experiment [4] of 1600 ± 3000 M⁻¹ s⁻¹.
